Source: patent publication US20160008398A1, “CONSTITUTIVE EXPRESSION OF COSTIMULATORY LIGANDS ON ADOPTIVELY TRANSFERRED T LYMPHOCYTES” (Memorial Sloan-Kettering Cancer Center, published 2016)

Target: CD28 (human, UniProt P10747)
Assay: cell-based or functional assay

B1: CD80 (ligand)
chain: VIHVTKEVKEVATLSCGHNVSVEELAQTRIYWQKEKKMVLTMMSGDMNIWPEYKNRTIFDITNNLSIVILALRPSDEGTYECVVLKYEKDAFKREHLAEVTLSVKADFPTPSISDFEIPTSNIRRIICSTSGGFPEPHLSWLENGEELNAINTTVSQDPETELYAVSSKLDFNMTTNHSFMCLIKYGHLRVNQTFNWNTTKQEHFPDNLLPSWAITLISVNGIFVICCLTYCFAPRCRERRRNERLRRESVRPV
  Granzyme B recruitment to T-cell tumor cell junctions: 2.2 fold
  NF-kB-luciferase signal in single OKT3-stimulated Jurkat T cells: 3.8 fold
  expansion of CAR-transduced T cells stimulated weekly on LNCaP tumor monolayers: ~2 fold
  expansion of CMV pp65-specific T cells restimulated with HLA-A*0201^+ pp65-transduced Caco-2 cells: 209 fold
  expansion of Pz1^+ T cells cocultured weekly with LNCaP tumor monolayers: 1040 fold enrichment
  expansion of T cells stimulated weekly with plate-bound OKT3: 237 fold greater proliferation
  in vivo expansion of Pz1^+ T cells in PC3-PSMA tumor bearing mice (bioluminescence): 41 fold higher photon count
